# Data from IntAct's records for PubMed 14675752.
# B1: Clathrin interactor 1 (Homo sapiens), Q14677 (parent)
# chain: MLNMWKVRELVDKATNVVMNYSEIESKVREATNDDPWGPSGQLMGEIAKATFMYEQFPELMNMLWSRMLKDNKKNWRRVYKSLLLLAYLIRNGSERVVTSAREHIYDLRSLENYHFVDEHGKDQGINIRQKVKELVEFAQDDDRLREERKKAKKNKDKYVGVSSDSVGGFRYSERYDPEPKSKWDEEWDKNKSAFPFSDKLGELSDKIGSTIDDTISKFRRKDREDSPERCSDSDEEKKARRGRSPKGEFKDEEETVTTKHIHITQATETTTTRHKRTANPSKTIDLGAAAHYTGDKASPDQNASTHTPQSSVKTSVPSSKSSGDLVDLFDGTSQSTGGSADLFGGFADFGSAAASGSFPSQVTATSGNGDFGDWSAFNQAPSGPVASSGEFFGSASQPAVELVSGSQSALGPPPAASNSSDLFDLMGSSQATMTSSQSMNFSMMSTNTVGLGLPMSRSQNTDMVQKSVSKTLPSTWSDPSVNISLDNLLPGMQPSKPQQPSLNTMIQQQNMQQPMNVMTQSFGAVNLSSPSNMLPVRPQTNALIGGPMPMSMPNVMTGTMGMAPLGNTPMMNQSMMGMNMNIGMSAAGMGLTGTMGMGMPNIAMTSGTVQPKQDAFANFANFSK
# Variants of: B1
# Conditions: with ap1g1_mouse Ap1g1, P22892
# Chain of ap1g1_mouse Ap1g1, P22892 (P22892 whole entry): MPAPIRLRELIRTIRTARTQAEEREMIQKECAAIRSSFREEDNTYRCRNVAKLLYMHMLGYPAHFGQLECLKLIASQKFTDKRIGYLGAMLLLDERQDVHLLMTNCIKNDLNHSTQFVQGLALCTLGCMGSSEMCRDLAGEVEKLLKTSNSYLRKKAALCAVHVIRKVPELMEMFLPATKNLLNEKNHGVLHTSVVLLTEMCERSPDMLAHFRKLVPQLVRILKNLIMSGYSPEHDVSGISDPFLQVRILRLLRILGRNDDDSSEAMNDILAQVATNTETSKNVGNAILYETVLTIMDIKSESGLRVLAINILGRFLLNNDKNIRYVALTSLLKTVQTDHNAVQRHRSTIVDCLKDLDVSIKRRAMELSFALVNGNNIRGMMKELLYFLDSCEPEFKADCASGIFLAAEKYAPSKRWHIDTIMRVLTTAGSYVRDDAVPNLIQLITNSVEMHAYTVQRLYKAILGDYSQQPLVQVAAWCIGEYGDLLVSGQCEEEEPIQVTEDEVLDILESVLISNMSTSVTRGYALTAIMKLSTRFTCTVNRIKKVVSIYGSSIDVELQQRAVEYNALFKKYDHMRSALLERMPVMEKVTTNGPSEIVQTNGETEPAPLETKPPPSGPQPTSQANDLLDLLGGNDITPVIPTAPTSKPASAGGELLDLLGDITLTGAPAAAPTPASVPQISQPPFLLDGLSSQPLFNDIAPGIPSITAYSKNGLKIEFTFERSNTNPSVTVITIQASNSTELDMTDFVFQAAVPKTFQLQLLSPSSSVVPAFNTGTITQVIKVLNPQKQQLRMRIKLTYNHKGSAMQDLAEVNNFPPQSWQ
row,Variant,effect of a mutation on the interaction
1,F372A,decreasing interaction

# Variants of: B1
# Conditions: with ap1g1_mouse Ap1g1, P22892
# Remark: another data set of the same source
row,Variant,effect of a mutation on the interaction
1,W375A,decreasing interaction

# Variants of: B1
# Conditions: with ap1g1_mouse Ap1g1, P22892
# Remark: another data set of the same source
row,Variant,effect of a mutation on the interaction
1,F378A,decreasing interaction

# Variants of: B1
# Conditions: with ap1g1_mouse Ap1g1, P22892
# Remark: another data set of the same source
row,Variant,effect of a mutation on the interaction
1,D371A,decreasing interaction

# Variants of: B1
# Conditions: with ap1g1_mouse Ap1g1, P22892
# Remark: another data set of the same source
row,Variant,effect of a mutation on the interaction
1,G373R,decreasing interaction

# Variants of: B1
# Conditions: with ap1g1_mouse Ap1g1, P22892
# Remark: another data set of the same source
row,Variant,effect of a mutation on the interaction
1,D374A,decreasing interaction
